Assay results taken from the DeepSol protein solubility set.

Test: soluble on expression in E. coli; label from the status in PepcDB or PDB records

| Sequence | soluble on expression in E. coli |
| --- | --- |
| MKKRYQTLNEHYRQLFGAKMFKVPIDAGFDCPNRDGTVAHGGCTFCTVSGSGDAIVAPDAPIKEQFYKEIDFMHRKWPDVNRYLVYFQNFTNTHDTVDVIRDRYEQAINEPGVVGINIGTRPDCLPDDTIAYLAELSERMHVTVELGLQTTYEETSRLINRAHSYDLYKETVRRLRHYPNINIVSHLINGLPKETHDMMLENVRRCVTDNDIQGIKLHLLHLMTNTRMQRDYHEGRLKLLSQKDYVSIICDQLEIIPKHIVIHRITGDAPRDMLIGPMWSLNKWEVLNAIDKEMERRGSFQGCKVD | not soluble |
| MSLKKIWLGILISVCTLLGADMSLWQKSTLNEIIKRGELRVGLEPGYLPFEMKDKKGNVIGFDVDLAREMAKAMGVKLKLVPTSWDGLIPGLVTEKFDIIISGMTISQERNLRVNFVEPYIVVGQSLLVKKGLEKGVKSYKDLDKPELTLVTKFGVSAEYAAKRLFKNAKLKTYDTEAEAVQEVLNGKADMFIFDLPFNVAFMAQKGQGYLVHLDTSLTYEPLGWAIKKGDPDFLNWLNHFLAQIKHDGSYDELYERWFVDTKWLEKIQEGHHHHHH | soluble |
| MIRQSVFLLAAIGATVFAQNDSFDLVDANNDGKLSEKELITFMRKRGRPDGQEYFQRFDLDRNGHLDISEFVPLVYEMSRRPVDMDYEFFKKMDLNDDGIVDKAEVEKIRKDNNDRIIDGILSIADTNRDGQLTYAEFKNHLSSGAKSLSPAEEQRNQALQLLSFIDANGDNKLDQLELYTFSQKTSTNKVTKSDVQQIFAMLDKNQDGYLTENELLQLAQQFSTIGNVRSTIPKV | not soluble |
| MPPSLRKAVAAAIGGGAIAIASVLITGPSGNDGLEGVSYIPYKDIVGVWTVCHGHTGKDIMLGKTYTKAECKALLNKDLATVARQINPYIKVDIPETMRGALYSFVYNVGAGNFRTSTLLRKINQGDIKGACDQLRRWTYAGGKQWKGLMTRREIEREICLWGQQ | soluble |
| GSHMIAPLSVKDNDKWVDTHVGKTTEIHLKGNPTTGYMWTRVGFVGKDVLSDEILEVVCKYTPTPSSTPMVGVGGIYVVLVKPRKRGHHTLELVYTRPFEGIKPENERYTLHLNVK | soluble |
| MKAAAKRISDGVYWTGVLDWDLRNYHGYTLQGTTYNAYLVCGDEGVALIDNSYPGTFDELMARVEDALQQVGMERVDYIIQNHVEKDHSGVLVELHRRFPEAPIYCTEVAVKGLLKHYPSLREAEFMTVKTGDVLDLGGKTLTFLETPLLHWPDSMFTLLDEDGILFSNDAFGQHLCCPQRLDREIPEYILMDAARKFYANLITPLSKLVLKKFDEVKELGLLERIQMIAPSHGQIWTDPMKIIEAYTGWATGMVDERVTVIYDTMHGSTRKMAHAIAEGAMSEGVDVRVYCLHEDDRSEIVKDILESGAIALGAPTIYDEPYPSVGDLLMYLRGLKFNRTLTRKALVFGSMGGNGGATGTMKELLAEAGFDVACEEEVYYVPTGDELDACFEAGRKLAAEIRR | soluble |
| MCSKQSANQQISYRQTAEATLDKGMDNQPEAPYWFPKQLLKWQLSKDKAAKYNTASVPLAKRIDKWQLPTVNKTQDPKMKVVALSIMNSSTSGNAPRGINTFDANVFSNWQYIDQLVYWGGSAGEGLIVPPTADVIDSAHKNGVPVLGTVFFPQVVSGGKLKWLNDFLKQDADGHFPMADKLVAVAKAYGFDGWFINQETDPEVKSFDSASTGKTATSSTSNGLSKKHAQLMQQLIKEYKQKAGSKLDLMWYDSMTKDGKMDWQNALTKENQSYLVDANMKPVADSMFLNFWWTKKRLASQELLKKSHERAEKLGISPYNLFAGIDVQADGTATPVRWNLFANKQHVPYTSLGLYAPDWTHASSDTVDEFQAKEGALWVNLEHHHHHH | soluble |
| MKKLLFFTLLLFGVLSVRSLADGCNAQVCMCPNGGYVTTGQYCSTSSGESWIITPIIGTVAIDPATGKWASISNTKDRKEAKNDVLERCGSDCKVFMVDSKRCVGVAYSKSDKIIGSDSATDNFGGIGYNTRVERSNEKALKKCEKNGGKDCKIIANVCAVEGTTKY | not soluble |
| MSDYLSVSTLTKYLKLKFDKDPYLERVYLTGQVSNFRRRPNHQYFSLKDDKSVIQATMWSGHFKKLGFELEEGMKVNVVGRVQLYEPSGSYSIIVEKAEPDGIGALAIQFEQLKKKLSQAGYFDDRHKQLIPQFVRKIGVVTSPSGAVIRDIITTVSRRFPGVEILLFPTKVQGEGAAQEIAQTIALANEKKDLDLLIVGRGGGSIEDLWAFNEECVVEAIFESRLPVISSVGHETDTTLADFVADRRAATPTAAAELATPVTKIDILSWITERENRMYQSSLRLIRTKEERLQKSKQSVIFRQPERLYDGFLQKLDNLNQQLTYSMRDKLQTVRQKQGLLHQKLQGIDLKQRIHIYQERVVQSRRLLSSTMTSQYDSKLARFEKAQDALISLDSSRIVARGYAIIEKNHTLVSTTNGINEGDHLQVKMQDGLLEVEVKDVRQENI | not soluble |
| MGHHHHHHSHRSSDCPYIVQFYGALFREGDCWICMELMSTSFDKFYKYVYSVLDDVIPEEILGKITLATVKALNHLKENLKIIHRDIKPSNILLDRSGNIKLCDFGISGQLVDSIAKTRDAGCRPYMAPERIDPSASRQGYDVRSDVWSLGITLYELATGRFPYPKWNSVFDQLTQVVKGDPPQLS | not soluble |
| MGSDKIHHHHHHMEIGQRFLVQLEETGQYFVNYQDGILIELAFDATVGKQSPAFSDLEHTAAYLEEHLRSHQTQALLLASKIHAYDASPVERITQMISIHSFFSTHRLVHPLNAYSTALLISRLEATDPQLQRTVELYRLAKKSHRFIVSPLLVSFLFLNALRRGEIATIHARIEATYDILKKRFGRSQQTYVTALLLALLPEDDQATYIAQVVQSRNLYRKHGIPLSFHGLLALLGDPRMHQTALEGLADQFRNTPHFKYRKDLVFLTAVRLYLADHPTLHQLFAPFSPSTLDDTSNLLPVYLFPVDLTDTSHATDGGMTDGGFDGGDGGGGGGD | not soluble |
| MTIKKSQIEKWIAAQKRHRLSDTHVQMARELGLNPDKLGKIDNHRQEPWKAPLPEFIEEIFYKRFKKERPDVVKPLKQILKEQEIKTKTKKKEKEIRRKEREQEQINNGTDEVLTFQSPTPITE | not soluble |
| GMPQHDKSRLVRIDTGPMINPVAGKPSRPIAGDASFRTVTAFEGGQGKVESGVWESTSGSFQSNTTGYIEYCHIIEGEARLVDPDGTVHAVKAGDAFIMPEGYTGRWEVDRHVKKIYFVTHLA | soluble |
| MEAKLQVGVLGFGTVGSGVIHILEEHQEKISQVTGYHISVKKVLVRDLEKNRRYETKGFELTTNPSDVLDDPEIAVVVEVMGSITTAREYILQALKAGKHVVTANKDLIALHGDELVAVAQANNCDLFYEASVAGGIPILRTIVNSLAADKIQKVMGIVNGTTNFMLTKMTTEKK | not soluble |
| WCYEIQTEDPRSSCLGPEKWPGACKENQQSPINIVTARTKVNPRLTPFILVGYDQKQQWPIKNNQHTVEMTLGGGACIIGGDLPARYEAVQLHLHWSNGNDNGSEHSIDGRHFAMEMHIVHKKLTSSKEDSKDKFAVLAFMIEVGDKVNKGFQPLVEALPSISKPHSTSTVRESSLQDMLPPSTKMYTYFRYNGSLTTPNCDETVIWTVYKQPIKIHKNQFLEFSKNLYYDEDQKLNMKDNVRPLQPLGKRQVFKSHA | soluble |
| GPGSMESSMSTGDLLTPGALWQDDTKVFVCSGRRCGRRFNRLFCPKHRCRWCGRVYCDACAPKQTVYKRQLLRKCNRCRLPVVFRYSWNERTRAMDCTPFECIISYLTPRSITALLQSCYTMMSEFPVCGYPFYDSIQQRFPSFYPGAQIGRGTFGTVFKCEDRSAADHKRAILKCISKATNLTYTRWMGALTELRILESVNHPNVAHLLGAFQTREDLVIVMEAGEGGTARRAAAGVREYGQAAEEAFTANIIEGVAAGLNYLYREKHIIHRDIKLDNIVLSADYSTPMIIDFGLAEFVVNEEEQWYVVGGTRNYAAPESIAAVANGHVDMKEPGITMHKGDLFSLGVVAYYLLSGHRPFRSRSFDKMHEEMRRGVACTGPLWDGVSSDARELVQALLSYDPAQRPDYAAIKENPFITARTAGVKSIQMQRNARLLLDEEETHAEWVTLEPSDLREAADEGESEVLLPLSTPQRWYHAYLPRFSLLHL | not soluble |
| MSSQMKAFLNELQGNMEVVGEFFDNPEKVIRKFGIVGREKEALLIRDLNDMDDYALSIQNSVASPSGAHSSTCHFVRQDLQSA | not soluble |
| MGSDKIHHHHHHMMKSRDKKDLILESIIQTYLLDNAPIGSNELNSNLCIPASTIRVYLKRLSDEGLITQLHISSGRIPTILTMQNYWQNFWEKEQDKNIHIKNESFLKELSKEFEIYCLVYGGRSLVLKEVLDLNTKFIVLDFEDEELVLKYEKEAWNFLQSLIGLDLSSIEKIALRVHFIDLVEKIASLRQNLICYRSNEERAYQIYQNDEFVKLLDCQIHRHFKESLEFEPLFKEGFMGLKVDAQFLGEDVNIILAGSVYTDYKKILQYIKEAA | not soluble |
| SMEDPDQLYTTLKNLLAQIKSHPSAWPFMEPVKKSEAPDYYEVIRFPIDLKTMTERLRSRYYVTRKLFVADLQRVIANCREYNPPDSEYCRCASALEKFFYFKLKEGGLIDK | soluble |
| MSLQKKAMIIYNPAAGKNKFRKLLPDAEKILTEADFEVTLVPSTPAPKSTTFIAKQAAEAGFDVVIAAGGDGTVNEVVNGLMQVDTPPKLGVLPVGTTNDYARALNFAKNPLEALRIIAKQETIRVDIGKANETEFFINNAAGGKITEITYAVKESMKSKWGRLAYLFSGLTVLPKLSPVYVEIAYNDKIFKGEILLFFVNKSNSVGGMETLCPPAELNSGMFELLILKKVSPKTLFQLFASIKKGTHLSSPHVIHARTNKVTINSEADLNVSYDGVYGGKAPYTLEVIPEALEVFADTNRISSRLRGEGHHHHHH | soluble |
| MMKQIPYGLTDFARIQKDNYYYVDKTMFIERIEMQPAYLFLIRPRRFGKSLTLAMLEAYYDVVYANDFDELFGHLYIGQHPTPKHNCYLIMRFNFSEVSSNVNEVERSFKLHCCSKLRDFVFKYEDLLGKEIWDVLDEEIQQDPGAFLSAINSYASRKGNLPIYLLIDEYDNFTNTILSTYGTEYYQKATHGEGFVRGFFNVIKAATTGTGSALQRMFITGVSPVTMDDVTSGFNIGTNITTDPWFNDLVGFSEAELREMLTYYKEQGVLMQTVDETIVMMKPNYDNYCFSRSRLADCMFNSDMVLYFMKSFVLHGEKPDEIVDPNIRTDFNKLAYLIRLDHGLGENFSVIKEIAEQGEITTDIATHFSALEMTDVRNFKSLLFYFGLLSIKGVDMVGRPILHVPNLVVREQLFSFLIQGYIKHDIFKIDMNRMTMLFENMAFRGDWKPLFNFIAEAIREQSRIREYIEGEAHIKGFLLAYLGMYRYYQLYPEYELNKGFADFLFKPSPSVPVMPPLTYLLEVKYAKAGASEKEIRALADGAREQLLRYSQDELVTEARAKGGLKLITIVWCSWELVLLEEVL | not soluble |
| MNNKKINFGCCNWTRDAMKWRQRFEAADVTWVSRTNNGPADLLAKHRLPDNCSFQYHYYVPPFIVSALHCNHS | soluble |
| MGDELHVIVARSVNVTHKEPPVVPDEQRREMVGALKPVDEAHLGHSEDIFIPIERIEPDIIALGYDQHHDDEQLEAALSARGIDCDICRASPLETEAADRVLSTGRIIDRILDERS | not soluble |
| TQDWNWNIGYNISYNKNKITKMTFNDDPNYAGVIHGGIDGGTGYNALIHRVGEAFNSFYVFEQIYGPDGKPIEGAYVDQNGDNQINDADLICFKKAAPDVFMGLTSQLSYKNWDFSFALRGSFGNYVYNNVQSNREAYEGANMYDQTGFLKNRLTSARSTDFKNAQYRSSYYVQNASFVRMDNISLGYTFNKLFNDKQSARVYATVQNPFVITKYKGLDPEISGEGIDNNIYPRPRVFMIGLNLNF | not soluble |
